Measured values published in patent publication US20220125940A1 (Novo Nordisk, published 2022).
Starred links: 1 amine or outer side, 2 acyl side, 3 side chain; linkers in the order of their positions; H or OH if unused. Non-standard residues stand in square brackets, D forms with d. Groups on a side chain read outwards from the residue. No end group written: not given here. *: point of attachment. C18 diacid = O=C(O)CCCCCCCCCCCCCCCCC(=O)*; γGlu = O=C(O)[C@H](CCC(=O)[*:2])N[*:1]; εLys = N[C@@H](CCCCN[*:1])C(=O)[*:2]; AEEA = NCCOCCOCC(=O)O; Aib = CC(C)(N)C(=O)O

T1: human GIP receptor (human, UniProt P48546 22-466)
T1 sequence (looked up): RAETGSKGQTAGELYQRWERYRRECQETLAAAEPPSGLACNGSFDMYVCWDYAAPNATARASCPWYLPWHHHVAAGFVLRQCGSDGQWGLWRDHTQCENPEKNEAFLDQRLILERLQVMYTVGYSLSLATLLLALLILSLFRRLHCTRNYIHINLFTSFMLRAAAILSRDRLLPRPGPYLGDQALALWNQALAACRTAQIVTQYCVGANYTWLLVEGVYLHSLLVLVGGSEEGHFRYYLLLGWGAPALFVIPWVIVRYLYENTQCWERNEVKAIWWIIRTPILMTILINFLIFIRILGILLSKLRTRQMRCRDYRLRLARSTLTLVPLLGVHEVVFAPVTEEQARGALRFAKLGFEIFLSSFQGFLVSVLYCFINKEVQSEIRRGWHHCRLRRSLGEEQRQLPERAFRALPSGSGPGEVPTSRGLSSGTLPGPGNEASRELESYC


How the values were obtained:
[1] = target: T1, human GIP receptor; test: cell-based or functional assay
[2] = target: human GLP-1 receptor (human, UniProt P43220 24-463); test: cell-based or functional assay
Chain of human GLP-1 receptor (P43220 24-463): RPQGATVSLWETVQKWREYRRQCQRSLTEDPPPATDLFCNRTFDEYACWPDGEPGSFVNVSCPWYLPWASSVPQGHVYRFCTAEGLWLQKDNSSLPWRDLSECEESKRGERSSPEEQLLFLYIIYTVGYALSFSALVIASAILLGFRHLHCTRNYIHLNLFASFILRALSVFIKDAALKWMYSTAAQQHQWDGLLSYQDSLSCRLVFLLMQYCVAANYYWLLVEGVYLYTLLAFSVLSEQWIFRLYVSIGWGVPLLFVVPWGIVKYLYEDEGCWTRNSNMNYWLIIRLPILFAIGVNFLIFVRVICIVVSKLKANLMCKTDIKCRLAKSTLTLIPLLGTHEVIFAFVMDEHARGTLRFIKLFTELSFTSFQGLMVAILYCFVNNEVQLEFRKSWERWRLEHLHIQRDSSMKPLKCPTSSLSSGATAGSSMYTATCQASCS

Row | Molecule | hGIPR, CRE Luc 0% HSA EC50 (pM) [1] | hGIPR, CRE Luc 1% HSA EC50 (pM) [1] | hGLP-1R, CRE Luc 0% HSA EC50 (pM) [2] | hGLP-1R, CRE Luc 1% HSA EC50 (pM) [2]
1 | human GIP (from UniProt P09681 52-93) (ligand) | 11.3 pM | 6.4 pM | – | –
2 | Y[Aib]EGTFTSDYSIYLEK([AEEA-AEEA-γGlu-C18 diacid])QAAREFIEWLLAGGPSSGAPPPS-OH (N-terminus assumed; SMILES CC[C@H](C)[C@H](NC(=O)[C@H](Cc1ccccc1)NC(=O)[C@H](CCC(=O)O)NC(=O)[C@H](CCCNC(=N)N)NC(=O)[C@H](C)NC(=O)[C@H](C)NC(=O)[C@H](CCC(N)=O)NC(=O)[C@H](CCCCNC(=O)COCCOCCNC(=O)COCCOCCNC(=O)CC[C@H](NC(=O)CCCCCCCCCCCCCCCCC(=O)O)C(=O)O)NC(=O)[C@H](CCC(=O)O)NC(=O)[C@H](CC(C)C)NC(=O)[C@H](Cc1ccc(O)cc1)NC(=O)[C@@H](NC(=O)[C@H](CO)NC(=O)[C@H](Cc1ccc(O)cc1)NC(=O)[C@H](CC(=O)O)NC(=O)[C@H](CO)NC(=O)[C@@H](NC(=O)[C@H](Cc1ccccc1)NC(=O)[C@@H](NC(=O)CNC(=O)[C@H](CCC(=O)O)NC(=O)C(C)(C)NC(=O)[C@@H](N)Cc1ccc(O)cc1)[C@@H](C)O)[C@@H](C)O)[C@@H](C)CC)C(=O)N[C@@H](CCC(=O)O)C(=O)N[C@@H](Cc1c[nH]c2ccccc12)C(=O)N[C@@H](CC(C)C)C(=O)N[C@@H](CC(C)C)C(=O)N[C@@H](C)C(=O)NCC(=O)NCC(=O)N1CCC[C@H]1C(=O)N[C@@H](CO)C(=O)N[C@@H](CO)C(=O)NCC(=O)N[C@@H](C)C(=O)N1CCC[C@H]1C(=O)N1CCC[C@H]1C(=O)N1CCC[C@H]1C(=O)N[C@@H](CO)C(=O)O) [Compound No. 10] | 11.3 pM | – | – | –
3 | Y[Aib]EGTFTSDYSILLEK([εLys-εLys-γGlu-C18 diacid])QAAREFINWLLAG-OH (N-terminus assumed; SMILES CC[C@H](C)[C@H](NC(=O)[C@H](Cc1ccccc1)NC(=O)[C@H](CCC(=O)O)NC(=O)[C@H](CCCNC(=N)N)NC(=O)[C@H](C)NC(=O)[C@H](C)NC(=O)[C@H](CCC(N)=O)NC(=O)[C@H](CCCCNC(=O)[C@@H](N)CCCCNC(=O)[C@@H](N)CCCCNC(=O)CC[C@H](NC(=O)CCCCCCCCCCCCCCCCC(=O)O)C(=O)O)NC(=O)[C@H](CCC(=O)O)NC(=O)[C@H](CC(C)C)NC(=O)[C@H](CC(C)C)NC(=O)[C@@H](NC(=O)[C@H](CO)NC(=O)[C@H](Cc1ccc(O)cc1)NC(=O)[C@H](CC(=O)O)NC(=O)[C@H](CO)NC(=O)[C@@H](NC(=O)[C@H](Cc1ccccc1)NC(=O)[C@@H](NC(=O)CNC(=O)[C@H](CCC(=O)O)NC(=O)C(C)(C)NC(=O)[C@@H](N)Cc1ccc(O)cc1)[C@@H](C)O)[C@@H](C)O)[C@@H](C)CC)C(=O)N[C@@H](CC(N)=O)C(=O)N[C@@H](Cc1c[nH]c2ccccc12)C(=O)N[C@@H](CC(C)C)C(=O)N[C@@H](CC(C)C)C(=O)N[C@@H](C)C(=O)NCC(=O)O) [Compound No. 18] | 20.9 pM | 285 pM | 19.7 pM | 226 pM
4 | Y[Aib]EGTFTSDYSILLEK([εLys-εLys-γGlu-C18 diacid])QAAREFINWLLAGGP-OH (N-terminus assumed; SMILES CC[C@H](C)[C@H](NC(=O)[C@H](Cc1ccccc1)NC(=O)[C@H](CCC(=O)O)NC(=O)[C@H](CCCNC(=N)N)NC(=O)[C@H](C)NC(=O)[C@H](C)NC(=O)[C@H](CCC(N)=O)NC(=O)[C@H](CCCCNC(=O)[C@@H](N)CCCCNC(=O)[C@@H](N)CCCCNC(=O)CC[C@H](NC(=O)CCCCCCCCCCCCCCCCC(=O)O)C(=O)O)NC(=O)[C@H](CCC(=O)O)NC(=O)[C@H](CC(C)C)NC(=O)[C@H](CC(C)C)NC(=O)[C@@H](NC(=O)[C@H](CO)NC(=O)[C@H](Cc1ccc(O)cc1)NC(=O)[C@H](CC(=O)O)NC(=O)[C@H](CO)NC(=O)[C@@H](NC(=O)[C@H](Cc1ccccc1)NC(=O)[C@@H](NC(=O)CNC(=O)[C@H](CCC(=O)O)NC(=O)C(C)(C)NC(=O)[C@@H](N)Cc1ccc(O)cc1)[C@@H](C)O)[C@@H](C)O)[C@@H](C)CC)C(=O)N[C@@H](CC(N)=O)C(=O)N[C@@H](Cc1c[nH]c2ccccc12)C(=O)N[C@@H](CC(C)C)C(=O)N[C@@H](CC(C)C)C(=O)N[C@@H](C)C(=O)NCC(=O)NCC(=O)N1CCC[C@H]1C(=O)O) [Compound No. 19] | 6.5 pM | 275 pM | 8.6 pM | 365 pM
5 | Y[Aib]EGTFTSDYSILLEK([εLys-εLys-γGlu-C18 diacid])QAAREFINWLLAGGPSS-OH (N-terminus assumed; SMILES CC[C@H](C)[C@H](NC(=O)[C@H](Cc1ccccc1)NC(=O)[C@H](CCC(=O)O)NC(=O)[C@H](CCCNC(=N)N)NC(=O)[C@H](C)NC(=O)[C@H](C)NC(=O)[C@H](CCC(N)=O)NC(=O)[C@H](CCCCNC(=O)[C@@H](N)CCCCNC(=O)[C@@H](N)CCCCNC(=O)CC[C@H](NC(=O)CCCCCCCCCCCCCCCCC(=O)O)C(=O)O)NC(=O)[C@H](CCC(=O)O)NC(=O)[C@H](CC(C)C)NC(=O)[C@H](CC(C)C)NC(=O)[C@@H](NC(=O)[C@H](CO)NC(=O)[C@H](Cc1ccc(O)cc1)NC(=O)[C@H](CC(=O)O)NC(=O)[C@H](CO)NC(=O)[C@@H](NC(=O)[C@H](Cc1ccccc1)NC(=O)[C@@H](NC(=O)CNC(=O)[C@H](CCC(=O)O)NC(=O)C(C)(C)NC(=O)[C@@H](N)Cc1ccc(O)cc1)[C@@H](C)O)[C@@H](C)O)[C@@H](C)CC)C(=O)N[C@@H](CC(N)=O)C(=O)N[C@@H](Cc1c[nH]c2ccccc12)C(=O)N[C@@H](CC(C)C)C(=O)N[C@@H](CC(C)C)C(=O)N[C@@H](C)C(=O)NCC(=O)NCC(=O)N1CCC[C@H]1C(=O)N[C@@H](CO)C(=O)N[C@@H](CO)C(=O)O) [Compound No. 20] | 7.1 pM | 247 pM | 4.2 pM | 256 pM
6 | Y[Aib]EGTFTSDYSILLEK([εLys-εLys-γGlu-C18 diacid])QAAREFINWLLAGGPSSGA-OH (N-terminus assumed; SMILES CC[C@H](C)[C@H](NC(=O)[C@H](Cc1ccccc1)NC(=O)[C@H](CCC(=O)O)NC(=O)[C@H](CCCNC(=N)N)NC(=O)[C@H](C)NC(=O)[C@H](C)NC(=O)[C@H](CCC(N)=O)NC(=O)[C@H](CCCCNC(=O)[C@@H](N)CCCCNC(=O)[C@@H](N)CCCCNC(=O)CC[C@H](NC(=O)CCCCCCCCCCCCCCCCC(=O)O)C(=O)O)NC(=O)[C@H](CCC(=O)O)NC(=O)[C@H](CC(C)C)NC(=O)[C@H](CC(C)C)NC(=O)[C@@H](NC(=O)[C@H](CO)NC(=O)[C@H](Cc1ccc(O)cc1)NC(=O)[C@H](CC(=O)O)NC(=O)[C@H](CO)NC(=O)[C@@H](NC(=O)[C@H](Cc1ccccc1)NC(=O)[C@@H](NC(=O)CNC(=O)[C@H](CCC(=O)O)NC(=O)C(C)(C)NC(=O)[C@@H](N)Cc1ccc(O)cc1)[C@@H](C)O)[C@@H](C)O)[C@@H](C)CC)C(=O)N[C@@H](CC(N)=O)C(=O)N[C@@H](Cc1c[nH]c2ccccc12)C(=O)N[C@@H](CC(C)C)C(=O)N[C@@H](CC(C)C)C(=O)N[C@@H](C)C(=O)NCC(=O)NCC(=O)N1CCC[C@H]1C(=O)N[C@@H](CO)C(=O)N[C@@H](CO)C(=O)NCC(=O)N[C@@H](C)C(=O)O) [Compound No. 21] | 5.4 pM | 131 pM | 5.7 pM | 118 pM
